Assay results: US20100099627A1 (YEDA RESEARCH AND DEVELOPMENT, published 2010)
Where a chain is given by its changes, count along the chain named.

T1: APA-GFP-ERK2, P63086
T1 chain: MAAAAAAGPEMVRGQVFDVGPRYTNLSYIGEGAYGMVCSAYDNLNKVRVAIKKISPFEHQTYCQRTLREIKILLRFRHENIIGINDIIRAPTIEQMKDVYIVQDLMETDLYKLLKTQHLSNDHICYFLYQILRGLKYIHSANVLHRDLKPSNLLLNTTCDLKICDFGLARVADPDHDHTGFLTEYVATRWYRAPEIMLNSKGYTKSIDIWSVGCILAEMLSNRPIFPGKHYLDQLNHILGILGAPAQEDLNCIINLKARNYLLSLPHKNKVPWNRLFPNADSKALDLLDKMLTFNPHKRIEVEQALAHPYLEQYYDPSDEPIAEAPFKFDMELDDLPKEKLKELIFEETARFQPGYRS

T2: TEY-AAA-ERK2, P63086
T2 chain: T1 chain with T183A, E184A, Y185A, A244S, A246S

T3: WT-GFP-ERK2, P63086
T3 chain: T1 chain with A244S, A246S

B1: active GST-ERK2 (protein)
chain: T1 chain with A244S, A246S
B2: WT-GFP-ERK2 (enzyme, UniProt P63086 1-358, looked up)
chain: T1 chain with A244S, A246S
modifications: SPS domain (Ser244, Ser246) and TEY motif phosphorylated upon stimulation of the cells (EGF, TPA, VOOH); the state depends on the cell treatment named in each row
notes: Overexpressed in HeLa or COS7 cells and immunoprecipitated with anti GFP Ab; also called WT-ERK2; WT-ERK; not shown: GFP encoded by pEGFP C1 (Clontech)
B3: EPE-GFP-ERK2 (enzyme, UniProt P63086 1-358, looked up)
chain: T1 chain with A244E, A246E
notes: also called GFP-ERK244/6E; ERK-EE; not shown: GFP encoded by pEGFP C1 (Clontech)
B4: APA-GFP-ERK2 (enzyme, UniProt P63086 1-358, looked up)
chain: T1 chain
notes: also called GFP-ERK244/6A; ERK-AA; not shown: GFP encoded by pEGFP C1 (Clontech)

Legend:
[1] = biological target: T1, APA-GFP-ERK2, P63086
[2] = biological target: T2, TEY-AAA-ERK2, P63086
[3] = biological target: T3, WT-GFP-ERK2, P63086
[4] = biological target: T4, importin-β (UniProt Q14974 1-876); test: co-immunoprecipitation with anti GFP Ab from HeLa cells, Western blot with anti importin-β Ab
T4 construct: also called Impβ
Procedure: FIG. 9A. […] The extracts of the treated cells were then subjected to coimmunoprecipitation using A/G beads pre-conjugated with anti GFP Ab and mild washes. […] The equal amount of immunoprecipitated ERKs was determined with anti GFP (αGFP; IP) Ab. FIG. 19B. […] HeLa cells overexpressing 2GFP, 2GFP-SPS, 2GFP-APA and 2GFP-EPE constructs were subjected to coimmunoprecipitation as described in FIG. 19A (without EGF stimulation). FIG. 19C. […] This was followed by mild washing, and the beads were then subjected to Western blot analysis using anti His (αHis) and anti αGFP Abs.

Binder | ^32P incorporation, in vitro kinase assay (reduction against GFP-ERK2) [1] | ^32P incorporation, in vitro kinase assay (reduction against GFP-ERK2) [2] | ^32P incorporation, in vitro kinase assay [3] | binding result [4]
B1 | that of SPS-APA was reduced by ˜80% | The phosphorylation of TEY-AAA was reduced by ˜25% | ^32P incorporation to GFP-ERK2 was detected mainly when this protein was incubated with Act-ERK2 | 
B2 |  |  |  | no binding
B3 |  |  |  | no binding
B4 |  |  |  | no binding
